# T1: MBP-Ecm25-N-term+RhoGAP (1–360aa) (S. cerevisiae, UniProt P32525 1-360)
# T1 sequence (looked up): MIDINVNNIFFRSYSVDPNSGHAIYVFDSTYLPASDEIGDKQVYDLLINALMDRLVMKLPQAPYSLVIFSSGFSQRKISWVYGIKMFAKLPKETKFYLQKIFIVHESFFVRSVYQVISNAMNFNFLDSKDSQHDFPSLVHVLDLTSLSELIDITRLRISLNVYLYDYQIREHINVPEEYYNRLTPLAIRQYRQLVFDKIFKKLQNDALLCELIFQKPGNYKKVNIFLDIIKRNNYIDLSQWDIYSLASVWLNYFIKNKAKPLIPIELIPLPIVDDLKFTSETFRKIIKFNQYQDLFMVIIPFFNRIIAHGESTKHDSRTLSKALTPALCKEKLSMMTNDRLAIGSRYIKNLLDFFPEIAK
# T2: MBP-Ecm25-FL (full length, 1–599aa) (S. cerevisiae, UniProt P32525 1-599)
# T2 sequence (looked up): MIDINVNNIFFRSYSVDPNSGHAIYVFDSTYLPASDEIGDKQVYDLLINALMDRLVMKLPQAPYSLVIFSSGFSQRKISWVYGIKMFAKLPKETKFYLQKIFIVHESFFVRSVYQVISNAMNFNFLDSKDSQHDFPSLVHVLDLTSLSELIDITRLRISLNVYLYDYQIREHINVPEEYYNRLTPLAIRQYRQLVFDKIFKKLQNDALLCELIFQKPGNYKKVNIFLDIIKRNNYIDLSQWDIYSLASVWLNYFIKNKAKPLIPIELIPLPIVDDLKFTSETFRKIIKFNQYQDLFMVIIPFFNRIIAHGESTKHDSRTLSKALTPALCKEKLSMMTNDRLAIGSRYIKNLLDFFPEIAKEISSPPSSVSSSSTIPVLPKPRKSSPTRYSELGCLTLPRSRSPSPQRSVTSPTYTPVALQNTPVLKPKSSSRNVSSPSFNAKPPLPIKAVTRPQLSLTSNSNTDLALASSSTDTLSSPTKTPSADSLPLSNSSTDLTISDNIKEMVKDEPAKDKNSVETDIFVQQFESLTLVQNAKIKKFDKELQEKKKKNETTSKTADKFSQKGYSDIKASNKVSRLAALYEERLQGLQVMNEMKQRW
# Target: T1, MBP-Ecm25-N-term+RhoGAP (1–360aa)
# Test: pull-down
row,binding result,Binder
1,binds,GST-Cdc42(Q61L) (natural protein) not shown
2,binds,GST-Cdc42 (natural protein) not shown
3,binds,GST-Cdc42(T17N) (natural protein) not shown

# Target: T2, MBP-Ecm25-FL (full length, 1–599aa)
# Test: pull-down
row,binding result,Binder
1,binds,"GST-Sla1(1–420aa, W41S) (domain or fragment, S. cerevisiae, UniProt P32790 1-420, looked up) MTVFLGIYRAVYAYEPQTPEELAIQEDDLLYLLQKSDIDDSWTVKKRVIGSDSEEPVGLVPSTYIEEAPVLKKVRAIYDYEQVQNADEELTFHENDVFDVFDDKDADWLLVKSTVSNEFGFIPGNYVEPENGSTSKQEQAPAAAEAPAATPAAAPASAAVLPTNFLPPPQHNDRARMMQSKEDQAPDEDEEGPPPAMPARPTATTETTDATAAAVRSRTRLSYSDNDNDDEEDDYYYNSNSNNVGNHEYNTEYHSWNVTEIEGRKKKKAKLSIGNNKINFIPQKGTPHEWSIDKLVSYDNEKKHMFLEFVDPYRSLELHTGNTTTCEEIMNIIGEYKGASRDPGLREVEMASKSKKRGIVQYDFMAESQDELTIKSGDKVYILDDKKSKDWWMCQLVDSGKSGLVPAQFIEPVRDKKHTE"
2,binds,"GST-Sla1(1–420aa, W108S) (domain or fragment, S. cerevisiae, UniProt P32790 1-420, looked up) MTVFLGIYRAVYAYEPQTPEELAIQEDDLLYLLQKSDIDDWWTVKKRVIGSDSEEPVGLVPSTYIEEAPVLKKVRAIYDYEQVQNADEELTFHENDVFDVFDDKDADSLLVKSTVSNEFGFIPGNYVEPENGSTSKQEQAPAAAEAPAATPAAAPASAAVLPTNFLPPPQHNDRARMMQSKEDQAPDEDEEGPPPAMPARPTATTETTDATAAAVRSRTRLSYSDNDNDDEEDDYYYNSNSNNVGNHEYNTEYHSWNVTEIEGRKKKKAKLSIGNNKINFIPQKGTPHEWSIDKLVSYDNEKKHMFLEFVDPYRSLELHTGNTTTCEEIMNIIGEYKGASRDPGLREVEMASKSKKRGIVQYDFMAESQDELTIKSGDKVYILDDKKSKDWWMCQLVDSGKSGLVPAQFIEPVRDKKHTE"
3,binds,"GST-Ysc84 (natural protein, S. cerevisiae, UniProt P32793 1-468, looked up) MGINNPIPRSLKSETKKAAKVLRSFVKPNQVFGADQVIPPYVLKRAKGLAIITVLKAGFLFSGRAGSGVIVARLKDGTWSAPSAIAMAGAGAGGMVGVELTDFVFILNSEEAVRSFSEFGTITLGGNVSVSAGPLGRSAEAAASASTGGVSAVFAYSKSKGLFAGVSVEGSAILERREANRKFYGDNCTSKMILSGRVKVPPAADPLLRILESRAFNFTRHDHDDNASGDDFYDDGQYSDNTSHYYDDIPDSFDSTDESSTRPNTRSSRRRGMSLGSRSRYDDDYDDDGYGRGRGYGDFDSEDEDYDYGRSPNRNSSRNRGPQIDRGTKPRANTRWEDDLYDRDTEYSRPNHSGRDYDNTRGNRRGYGRERGYSLGHGPTHPSNMSNVDDLSHKMSKTGLGNESTATNSATPTAVALYNFAGEQPGDLAFKKGDVITILKKSDSQNDWWTGRTNGKEGIFPANYVRVS"
4,binds,"GST-Lsb3 (natural protein, S. cerevisiae, UniProt P43603 1-459, looked up) MGINNPIPRSLKSETKKAAKILASFVKPNQVFGADQVIPPDVLKRAKGLAIITILKAGFLFSGRAGSGVIVARLKDGTWSAPSAIAMAGAGAGGMVGIELTDFVFILNTQDAVKSFSEFGTITLGGNVSVSAGPLGRSAEAAASASAGGVAAVFAYSKSKGLFAGVSVEGSAIIERREANRKFYGDNCTAKMILSGRIRPPPAVDPLFRVLESRAFNYRPSNGGRGSFDDDEDDYYDDDDYYNDIPSSFSSTDASSTRPNTRSTRRRAQSGSRYTFDDDDDDDDYGTGYSRNSRLAPTNSGGSGGKLDDPSGASSYYASHRRSGTAQSRARSSRNRWADDEYDDYDDDYESGYRRGNGRDRTKDREVDDLSNRFSKSRISSASTPQTSQGRFTAPTSPSTSSPKAVALYSFAGEESGDLPFRKGDVITILKKSDSQNDWWTGRVNGREGIFPANYVELV"
